According to article PMC8260656:

Target: EZH2 recombinant protein His-tagged (Epigentek, E24031-1) (human) (UniProt Q15910)
Test: MST; labeled His-tagged EZH2 at 5 nM fixed; ERG from 0.4uM to 2.44E-05uM; incubated at room temperature for 5 min; Monolith NT.115, Premium capillaries, 30% LED excitation, high MST power

B1: ERG recombinant protein (Origene, TP308093) (natural protein)
chain: MASTIKEALSVVSEDQSLFECAYGTPHLAKTEMTASSSSDYGQTSKMSPRVPQQDWLSQPPARVTIKMECNPSQVNGSRNSPDECSVAKGGKMVGSPDTVGMNYGSYMEEKHMPPPNMTTNERRVIVPADPTLWSTDHVRQWLEWAVKEYGLPDVNILLFQNIDGKELCKMTKDDFQRLTPSYNADILLSHLHYLRETPLPHLTSDDVDKALQNSPRLMHARNTGGAAFIFPNTSVYPEATQRITTRPDLPYEPPRRSAWTGHGHPTPQSKAAQPSPSTVPKTEDQRPQLDPYQILGPTSSRLANPGSGQIQLWQFLLELLSDSSNSSCITWEGTNGEFKMTDPDEVARRWGERKSKPNMNYDKLSRALRYYYDKNIMTKVHGKRYAYKFDFHGIAQALQPHPPESSLYKYPSDLPYMGSYHAHPQKMNFVAPHPPALPVTSSSFFAAPNPYWNSPTGGIYPNTRLPTSHMPSHLGTYY
Kd: 290 nM
